Consider 33 molecules from patent US20250066503A1, “CELL INJURY INDUCING THERAPEUTIC DRUG FOR USE IN CANCER THERAPY” (CHUGAI SEIYAKU KABUSHIKI KAISHA, priority 2016, published 2025).

The experiment addresses T1, human GPC3 (human, UniProt P51654 25-563).
T1 construct: range 25-563; soluble analyte; also called soluble human GPC3; glypican 3
Briefly: SPR.

Numbering of substitutions follows the chain as printed.

T1 sequence (P51654 25-563 limits assumed): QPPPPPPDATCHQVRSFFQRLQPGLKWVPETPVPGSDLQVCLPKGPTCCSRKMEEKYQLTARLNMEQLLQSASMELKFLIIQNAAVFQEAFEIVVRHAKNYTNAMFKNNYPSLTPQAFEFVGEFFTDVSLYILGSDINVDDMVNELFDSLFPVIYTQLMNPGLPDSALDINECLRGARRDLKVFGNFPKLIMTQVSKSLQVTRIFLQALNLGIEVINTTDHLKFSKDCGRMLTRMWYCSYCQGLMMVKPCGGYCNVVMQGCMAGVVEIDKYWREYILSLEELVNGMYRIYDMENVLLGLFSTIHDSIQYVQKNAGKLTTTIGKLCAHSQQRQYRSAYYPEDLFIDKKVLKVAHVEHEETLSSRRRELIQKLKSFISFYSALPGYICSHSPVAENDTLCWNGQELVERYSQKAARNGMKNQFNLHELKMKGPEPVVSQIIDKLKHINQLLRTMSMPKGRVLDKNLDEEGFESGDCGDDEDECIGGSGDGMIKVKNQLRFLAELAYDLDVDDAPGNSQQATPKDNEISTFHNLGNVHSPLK

B1: H0610-G1dh/none-Hi-Kn010G3/L0218-k0 (antibody, V domains shown)
VH: QVQLVQSGAEVKKPGASVKVSCKASGYTFTDYEMHWIRQPPGQGLEWIGAIDGKTPDTAYSQKFKGRVTLTADKSTSTAYMELSSLTSEDTAVYYCTRFYSYTYWGQGTLVTVSS
VL: DIVMTQSPLSLPVTPGEPASISCRSSQSLVHSNRNTYLHWYQQKPGQAPRLLIYKVSNRFRGVPDRFSGSGSGTDFTLKISRVEAEDVGVYYCYQGTQVPYTFGQGTKLEIK
notes: one-arm
Regarding B1, binding was put at a Kd of 1990 pM.

B2: H0610-G1dh/none-Hi-Kn010G3/L0246-k0 (antibody, V domains shown)
VH: B1 VH
VL: B1 VL with L29P, L38I, H39Q, R61S, Y94S
notes: one-arm
B2 showed a dissociation constant (Kd) of 1.21 pM.

B3: H0610-G1dh/none-Hi-Kn010G3/L0228-k0 (antibody, V domains shown)
VH: B1 VH
VL: B1 VL with L29P, L38I, R61S, Y94V
notes: one-arm
Molecule B3 came in with a Kd of 202 pM.

B4: H0610-G1dh/none-Hi-Kn010G3/L0230-k0 (antibody, V domains shown)
VH: B1 VH
VL: B1 VL with L29P, L38I, R61S, G96T
notes: one-arm
For the molecule B4, the Kd was found to be 4000 pM.

B5: H0610-G1dh/none-Hi-Kn010G3/L0219-k0 (antibody, V domains shown)
VH: B1 VH
VL: B1 VL with L38I, Y94G
notes: one-arm
The molecule B5 had an equilibrium dissociation constant (Kd) of 2280 pM.

B6: H0610-G1dh/none-Hi-Kn010G3/L0243-k0 (antibody, V domains shown)
VH: B1 VH
VL: B1 VL with Q27E, S28P, L29P, Y94G
notes: one-arm
Molecule B6 yielded a Kd of 649 pM.

B7: H0610-G1dh/none-Hi-Kn010G3/L0232-k0 (antibody, V domains shown)
VH: B1 VH
VL: B1 VL with Q27E, R61S, Y94G
notes: one-arm
B7 registered an equilibrium dissociation constant (Kd) of 5380 pM.

B8: H0610-G1dh/none-Hi-Kn010G3/L0266-k0 (antibody, V domains shown)
VH: B1 VH
VL: B1 VL with S28P, L29P, R61S, Y94V
notes: one-arm
For B8, the Kd came to 213 pM.

B9: H0610-G1dh/none-Hi-Kn010G3/L0237-k0 (antibody, V domains shown)
VH: B1 VH
VL: B1 VL with S28E, L29P, L38I, R61S
notes: one-arm
Molecule B9 displayed a Kd of 1310 pM.

B10: H0610-G1dh/none-Hi-Kn010G3/L0261-k0 (antibody, V domains shown)
VH: B1 VH
VL: B1 VL with L29P, L38I, H39Q, R61S, Y94T
notes: one-arm
The molecule B10 had an equilibrium dissociation constant (Kd) of 10.7 pM.

B11: H0610-G1dh/none-Hi-Kn010G3/L0239-k0 (antibody, V domains shown)
VH: B1 VH
VL: B1 VL with Q27E, L29P, Y94G
notes: one-arm
Turning to B11, binding was characterised by a dissociation constant (Kd) of 874 pM. This Kd lies about 82-fold higher than the previous one.

B12: H0610-G1dh/none-Hi-Kn010G3/L0233-k0 (antibody, V domains shown)
VH: B1 VH
VL: B1 VL with S28E, R61S, Y94G
notes: one-arm
As to B12, the affinity, expressed as Kd, was 3550 pM.

B13: H0610-G1dh/none-Hi-Kn010G3/L0264-k0 (antibody, V domains shown)
VH: B1 VH
VL: B1 VL with S25P, L29P, R61S, Y94A
notes: one-arm
B13 registered a dissociation constant Kd of 219 pM.

B14: H0610-G1dh/none-Hi-Kn010G3/L0258-k0 (antibody, V domains shown)
VH: B1 VH
VL: B1 VL with S28P, L29P, R61S, Y94T
notes: one-arm
B14 yielded an equilibrium dissociation constant (Kd) of 0.352 pM.

B15: H0610-G1dh/none-Hi-Kn010G3/L0248-k0 (antibody, V domains shown)
VH: B1 VH
VL: B1 VL with S25P, L29P, L38I, H39Q, R61S
notes: one-arm
Take B15: the dissociation constant Kd is 55.5 pM. This Kd is about 160-fold higher than that of the molecule before.

B16: H0610-G1dh/none-Hi-Kn010G3/L0238-k0 (antibody, V domains shown)
VH: B1 VH
VL: B1 VL with Q27E, S28P, L29P, R61S
notes: one-arm
Consider B16, for which the affinity, expressed as Kd, was 637 pM.

B17: H0610-G1dh/none-Hi-Kn010G3/L0231-k0 (antibody, V domains shown)
VH: B1 VH
VL: B1 VL with L29P, L38I, R61S, V99W
notes: one-arm
The molecule B17 had a Kd of 589 pM. This Kd and that of the molecule before are within 1.5-fold of each other.

B18: H0610-G1dh/none-Hi-Kn010G3/L0223-k0 (antibody, V domains shown)
VH: B1 VH
VL: B1 VL with L29P, L38I, F60L, R61S
notes: one-arm
In turn, B18 registered an equilibrium dissociation constant (Kd) of 475 pM.

B19: H0610-G1dh/none-Hi-Kn010G3/L0234-k0 (antibody, V domains shown)
VH: B1 VH
VL: B1 VL with S28E, L29P, Y94G
notes: one-arm
For B19, the Kd worked out at 778 pM.

B20: H0610-G1dh/none-Hi-Kn010G3/L0240-k0 (antibody, V domains shown)
VH: B1 VH
VL: B1 VL with Q27E, L29P, R61S
notes: one-arm
On to B20, for which the equilibrium dissociation constant (Kd) was 848 pM.

B21: H0610-G1dh/none-Hi-Kn010G3/L0227-k0 (antibody, V domains shown)
VH: B1 VH
VL: B1 VL with L29P, L38I, R61S, Y94L
notes: one-arm
B21 gave a Kd of 408 pM. This Kd lies about 2.1-fold lower than the previous one.

B22: H0610-G1dh/none-Hi-Kn010G3/L0267-k0 (antibody, V domains shown)
VH: B1 VH
VL: B1 VL with S25P, L29P, R61S, Y94V
notes: one-arm
In the case of B22, binding was characterised by a dissociation constant (Kd) of 179 pM. Against the preceding molecule, the Kd is about 2.3-fold lower.

B23: H0610-G1dh/none-Hi-Kn010G3/L0242-k0 (antibody, V domains shown)
VH: B1 VH
VL: B1 VL with Q27E, L29P, L38I, R61S
notes: one-arm
For the molecule B23, the Kd came to 1190 pM.

B24: H0610-G1dh/none-Hi-Kn010G3/L0268-k0 (antibody, V domains shown)
VH: B1 VH
VL: B1 VL with L29P, L38I, H39Q, R61S, Y94V
notes: one-arm
In the case of B24, binding was put at a Kd of 16.9 pM.

B25: H0610-G1dh/none-Hi-Kn010G3/L0229-k0 (antibody, V domains shown)
VH: B1 VH
VL: B1 VL with L29P, L38I, R61S, G96S
notes: one-arm
Molecule B25 had an equilibrium dissociation constant (Kd) of 1200 pM.

B26: H0610-G1dh/none-Hi-Kn010G3/L0224-k0 (antibody, V domains shown)
VH: B1 VH
VL: B1 VL with L29P, L38I, R61P
notes: one-arm
Regarding B26, the Kd was 243 pM. This Kd is about 4.9-fold lower than that of the molecule before.

B27: H0610-G1dh/none-Hi-Kn010G3/L0263-k0 (antibody, V domains shown)
VH: B1 VH
VL: B1 VL with L29P, L38I, R61S, Y94A
notes: one-arm
For the molecule B27, binding was characterised by a dissociation constant (Kd) of 564 pM.

B28: H0610-G1dh/none-Hi-Kn010G3/L0262-k0 (antibody, V domains shown)
VH: B1 VH
VL: B1 VL with S28P, L29P, R61S, Y94A
notes: one-arm
Molecule B28 registered an equilibrium dissociation constant (Kd) of 211 pM.

B29: H0610-G1dh/none-Hi-Kn010G3/L0226-k0 (antibody, V domains shown)
VH: B1 VH
VL: B1 VL with L29P, L38I, R61S, Y94I
notes: one-arm
Molecule B29 gave a dissociation constant Kd of 93 pM.

B30: H0610-G1dh/none-Hi-Kn010G3/L0265-k0 (antibody, V domains shown)
VH: B1 VH
VL: B1 VL with L29P, L38I, H39Q, R61S, Y94A
notes: one-arm
On to B30, for which binding was put at a Kd of 8.7 pM.

B31: H0610-G1dh/none-Hi-Kn010G3/L0220-k0 (antibody, V domains shown)
VH: B1 VH
VL: B1 VL with S28P
notes: one-arm
B31 returned a Kd of 1360 pM.

B32: H0610-G1dh/none-Hi-Kn010G3/L0249-k0 (antibody, V domains shown)
VH: B1 VH
VL: B1 VL with S25P, L29P, L38I, H39Q, R61S, Y94S
notes: one-arm
As to B32, the dissociation constant Kd is 6.86 pM.

B33: H0610-G1dh/none-Hi-Kn010G3/L0259-k0 (antibody, V domains shown)
VH: B1 VH
VL: B1 VL with L29P, L38I, R61S, Y94T
notes: one-arm
The molecule B33 had a dissociation constant Kd of 334 pM.
